This is an account of results in the supplement of paper PMC9170038.

The subject of this series is MS2 coat protein. Briefly: apparent KD of MS2 coat protein; designed switch direction (-1 OFF switch, 1 ON switch): -1; higher = weaker reporter binding. The method, boiled down:
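Designed RNA switches with common flanks were transcribed on Illumina chips by stalled E. coli RNA polymerase and titrated with SNAP-549-labelled MS2 coat protein, from 0.7 or 1.5 nM doubling to 3 µM, in Tris-HCl pH 7.5 buffer with KCl, MgCl2, BSA, DTT, tRNA and Tween-20. Steps lasted 0.8–1.5 h (lowest) to 10–20 min (highest). Titrations ran without input, with 200 uM small-molecule ligand, or with an oligonucleotide input. Normalised cluster fluorescence was curve-fitted, and apparent KD is the per-design median over clusters.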

The mark [1] stands for this setting: Eterna round: R95, input ligand: FMN 200 uM.
[2] abbreviates: Eterna round: R95, input ligand: microRNA oligo, concentration not stated.
Where [3] appears, read: Eterna round: R95, input ligand: none.
[4] abbreviates: input ligand: microRNA oligo, concentration not stated.

Regarding “AAGAAACAUGAGGAUCACCCAUGUGAGGAUAUGAAAAAGAAAAGAAAAGAAAGAAGGAUCAGAAGGCACAAAGG [salish99-ex1_r3_025] (puzzle: Exclusion 1)”, the “apparent KD of MS2 coat protein” value by setting is: under setting [1], 43 nM; under setting [2], 30.3 nM; under setting [3], 34.1 nM.
On to “UUUUAACAUGAGGAUCACCCAUGUGAGGAUAUCGAAAUUUAUAUUAAUAUUAUUUUAUCGAGAAGGCACAUUUU [JMF 48] (puzzle: Exclusion 1)”, for which the “apparent KD of MS2 coat protein” value under setting [2] was 122 nM.
As for “CUUGUGUGAGGAUAUGCGUAGGCAGUAAGUAAGUAGCCGGAGCAGAAGGCACAUGAGGAUCACCCAUGUGUUAC [EX4 B.1] (Eterna round: R97, puzzle: Exclusion 4)”, the “apparent KD of MS2 coat protein” value by setting is: (input ligand: FMN 200 uM) 121 nM; (input ligand: none) 72.6 nM.
For “CAAUUCAGAGGAUAUGCGCAUAGAUAAGACUUUUUUUCUUAACAUGAGGAUCACCCAUGUAGAAGGCUGUAAAC [Ex2 #62] (Eterna round: R97, puzzle: Exclusion 2)” the same measures were 16.5 nM and 16.8 nM.
The corresponding values for “UUACUCGCAGGAUAUACGGGACAUACACAUCAAACUACACGACAUGAGGAUCACCCAUGUAGAAGGGCGUUACA [Blue and Green] (Eterna round: R97, puzzle: Exclusion 2)” are 73.5 nM and 51.2 nM.
With “CCUUAACAUGAGGAUCACCCAUGUGAGGAUAUGAUGCAGCAGUGGUCUACGCUGUGCAUCAGAAGGUACAUGGU (Eterna round: R96, puzzle: Exclusion 1)”, the “apparent KD of MS2 coat protein” value by setting is: (input ligand: FMN 200 uM) 291 nM; under setting [4], 35.9 nM; (input ligand: none) 44.5 nM.
In the case of “AAGGAUAGAGGAUAUACAUAGAUACAGAUUCGUGUAGAACUACAUGAGGAUCACCCAUGUAGAAGGCUAUCCUA [Fiskers Ex 2 - 7] (puzzle: Exclusion 2)”, the “apparent KD of MS2 coat protein” value under setting [2] is 15.2 nM.
“AAGAAUCAAGGAUAUGCAUGAUACGACAUGAGGAUCACCCAUGUCCUCACGCGUAUCCUUGCAGAAGGUGAGUAUA [EX5 A.22] (Eterna round: R97, puzzle: Exclusion 5)”: the “apparent KD of MS2 coat protein” value amounted to 15 nM (input ligand: FMN 200 uM) and 15.3 nM (input ligand: none).
Regarding “UUUACAAGCUAUAGAUCCCACAUGAGGAUCACCCAUGUUGCUGCCGGUGACGGUAGCAUAACUAUUGCUCGUCUUAU [JL TOV1 3.61] (Eterna round: R97, puzzle: Sensor, turn-off variant 1)”, the “apparent KD of MS2 coat protein” value reads like this: (input ligand: FMN 200 uM) 150 nM; (input ligand: none) 185 nM.
For “UGAGUCUAAGGAUAUCUGAGGCGCGACAUGAGGAUCACCCAUGUCUCCAAGGAGAGAGCUGGAGAAGGUAGCUGGA [Eternabot (L2) Solution 81] (Eterna round: R97, puzzle: Exclusion 5)” the same measures were 17.6 nM and 18.6 nM.
For “CUAUCAAGCAAGGAUAUGCAAUUUAUUAUUUAUGCAGAAGGUGCAACAUGAGGAUCACCCAUGUUUCUGGGUUU [JR_E6_Sub047] (puzzle: Exclusion 6)”, under setting [2], the “apparent KD of MS2 coat protein” value turned out to be 39.5 nM.
For “CUAUCUAGAGGAUAUACGAGAUCGAAAGAUCGGCGAUCCCUACAUGAGGAUCACCCAUGUAGAAGGCUAGAUAG [Mod 16 - Jieux - Exclusion 2] (Eterna round: R97, puzzle: Exclusion 2)”, the “apparent KD of MS2 coat protein” value (input ligand: FMN 200 uM) is 99.5 nM and the “apparent KD of MS2 coat protein” value (input ligand: none) worked out at 18.6 nM.
As to “UACAUGAGGAUCACCCAUGUACCUUAUGUAAGAGUGGGAAGUAAGGAUAUAUAUGAAGGAAUGAAAUAGAAGGUGCAUAGAGAG [Default title] (Eterna round: R96, puzzle: Exclusion NG 3)”, the “apparent KD of MS2 coat protein” value is, setting by setting: (input ligand: FMN 200 uM) 121 nM; under setting [4], 97.4 nM; (input ligand: none) 93.3 nM.
With “AGCAUGGUAGGAUAUACGGAACAUUAGGGUUUGUUGUGUGGACAUGAGGAUCACCCAUGUAGAAGGGCCGUGCA [Mat - Exclusion 2 - Mod of JL - D81] (puzzle: Exclusion 2)”, the “apparent KD of MS2 coat protein” value under setting [2] was determined as 33.7 nM.
As to “GUAAAGUGAGGAUAUGGUAAAUUAAUUAUUAAUUAAUUAAUCCAGAAGGCACAUGAGGAUCACCCAUGUAUAUG [Mat - Exclusion 4 - D88] (puzzle: Exclusion 4)”, the “apparent KD of MS2 coat protein” value under setting [2] amounted to 30 nM.
For “ACCAUGUCAGGAUAUGCCCGUGUUCGAUCCGAGAAACACGAGCAGAAGGGACAUGAGGAUCACCCAUGUCCAAG [Eternabot (Original) Solution 1] (Eterna round: R97, puzzle: Exclusion 4)”, the “apparent KD of MS2 coat protein” value is, setting by setting: (input ligand: FMN 200 uM) 45.2 nM; (input ligand: none) 16.2 nM.
“GAAAAGGUAGGAUAUACGAUAAAAAAGGGUAGAAAAAAAACACAUGAGGAUCACCCAUGUAGAAGGACCAAAAG [salish99_ex2_r3_086] (puzzle: Exclusion 2)”: the “apparent KD of MS2 coat protein” value under setting [1] is 95.2 nM, the “apparent KD of MS2 coat protein” value under setting [2] worked out at 20.7 nM and the “apparent KD of MS2 coat protein” value under setting [3] was determined as 30 nM.
“CAAUACAAGCGAAGAUCCUACAUGAGGAUCACCCAUGUGCUCGUCUUAAAAGGUACUGAGACGAAAGUCUCGGUACC [Mat - Sensor, turn-off var - Eli Mod - D99] (Eterna round: R97, puzzle: Sensor, turn-off variant 1)”: the “apparent KD of MS2 coat protein” value by setting is: (input ligand: FMN 200 uM) 280 nM; (input ligand: none) 367 nM.
For “GAUCAUGCAGGAUAUACAUGGAACAUGAAAUCAUGAAUUUCACAUGAGGAUCACCCAUGUAGAAGGGCAUGAUC [Omei Ex2 A15] (Eterna round: R97, puzzle: Exclusion 2)” the same measures were 23.1 nM and 24.9 nM.
For the sequence “CCGCUCCGUGUAGGAUAUCGGCGUGCCCUGCGCCGAGAAGGACAUGAGGAUCACCCAUGUAUGUUAUUAUCACGCGUGGCGCAC [Design 75] (Eterna round: R96, puzzle: Exclusion NG 1)”, the “apparent KD of MS2 coat protein” value was 18.7 nM (input ligand: FMN 200 uM), 15 nM under setting [4] and 19.9 nM (input ligand: none).
The corresponding values for “CCAGAGAGCGAAGGAUAUUCUGUUCAAUGGGUCGACCUAGACAUGAGGAUCACCCAUGUCGCCCGGGAGAAGGUCGCAAGGAUC [Eternabot solution 18] (Eterna round: R96, puzzle: Exclusion NG 2)” are 18.7 nM, 13.3 nM and 18.4 nM.
For the sequence “ACAAGCUUUUUGUUCGUCUUAUAAUAAUAAAUAAAUAUAACAUGAGGAUCACCCAUGUUAAGAAGACGGCCUCAUGU [Sesor Array 21 - Jieux - Sensor v3, turn-off variant 2] (puzzle: Sensor v3, turn-off variant 2)”, the “apparent KD of MS2 coat protein” value is, setting by setting: under setting [1], 82.2 nM; under setting [2], 174 nM; under setting [3], 71.8 nM.
For the sequence “UGUAGAGUGGUAGGAUAUCCGGCUGUUUCAGUCGGAGAAGGACCACAGUCACUGGGUCCUUAUAUGGGUGACCAUGUAUCUACU [pwkr exNG1 F6.7] (Eterna round: R96, puzzle: Exclusion NG 1)”, the “apparent KD of MS2 coat protein” value is 558 nM (input ligand: FMN 200 uM), 305 nM under setting [4] and 395 nM (input ligand: none).
For the sequence “CCCUCACAUGAGGAUCACCCAUGUCAGGAUAUGCGCGGCCAAAAGGGCUGCUAAGGCAGCAGAAGGGACGUGAA [Eninored] (puzzle: Exclusion 1)”, under setting [2], the “apparent KD of MS2 coat protein” value came to 14.4 nM.
With “CGAAAUGCCCGUGGCCACAAGCUUUUUGCUUGUCUUACUACAUGAGGAUCACCCAUGUACCAUGGGCUCCUGACCAU [Rixele] (puzzle: Sensor v3, turn-off variant 2)”, the “apparent KD of MS2 coat protein” value stood at 13.6 nM under setting [1], 11.6 nM under setting [2] and 11.2 nM under setting [3].
For “UUUUAGAGAGGAUAUAUAUUGUGAAACAUGAGGAUCACCCAUGUAAUAAUAUGGAUAUAAAUAGAAGGCUCAUUUA [Mat - Exclusion 5 - JL mod - D8] (puzzle: Exclusion 5)” the same measures were 25.7 nM, 26.9 nM and 28.8 nM.
“UUUUACAUAGGAUAUAGUUUGUUGUACAUGAGGAUCACCCAUGUUUUUGUUUGUGCUUUUCUAGAAGGAUGUUUCU [JR_E5_Sub016] (puzzle: Exclusion 5)”: the “apparent KD of MS2 coat protein” value under setting [2] was 28.9 nM.
Turning to “GGAUCGAGUGUGAGGAUAUGCUGGUCCUUGGAUCAGCAGAAGGCACAUGAGGAUCACCCAUGUGAAGACGAUCC [Eli bmx4 4.55] (Eterna round: R97, puzzle: Brourd's mod of Exclusion 4)”, the “apparent KD of MS2 coat protein” value reads like this: (input ligand: FMN 200 uM) 340 nM; (input ligand: none) 40.1 nM.
“AAAGCAAAGACAGGAUAUCGACCCAGUGAUUUUCGUGCCGGAAACAUGAGGAUCACCCAUGUGUACGAGAAGGGUCAAAACAAC [Uslebeteat] (Eterna round: R96, puzzle: Exclusion NG 2)”: the “apparent KD of MS2 coat protein” value by setting is: (input ligand: FMN 200 uM) 61.9 nM; under setting [4], 17.1 nM; (input ligand: none) 22.3 nM.
For the sequence “UUAAUUAGCAGGCAAGAUCAUUACAUGAGGAUCACCCAUGUCGAGGAUAUCAGCUCGAUUAGAGCUGAGAAGGCGACAGCCUGC [ExNG3/13-A1] (Eterna round: R96, puzzle: Exclusion NG 3)”, the “apparent KD of MS2 coat protein” value is, setting by setting: (input ligand: FMN 200 uM) 1540 nM; under setting [4], 443 nM; (input ligand: none) 382 nM.
For “CCUCGAAGGCAAGGAUAUCCUACAUUGUUCUGGCCCGGGCAUGCUACAUGAGGAUCACCCAUGUGGGAGAAGGUGCGCCACGGC [Design 30] (Eterna round: R96, puzzle: Exclusion NG 2)” the same measures were 56.7 nM, 45 nM and 58.3 nM.
